These results are taken from paper PMC7556464, “4CMenB vaccine induces elite cross-protective human antibodies that compete with human factor H for binding to meningococcal fHbp” (PLoS Pathogens, 2020).

Substitutions are numbered along the chain they refer to.

The labels stand for the following.
T1: factor H binding protein (fHbp) variant 1.1, recombinant (Neisseria meningitidis MC58, fHbp v1.1)
T1 construct: also called fHbp v1.1; fHbp v1; source: E. coli BL21(DE3), purified (Ni-NTA, SEC when necessary); not shown: His6, C-terminal, kept
T1 chain: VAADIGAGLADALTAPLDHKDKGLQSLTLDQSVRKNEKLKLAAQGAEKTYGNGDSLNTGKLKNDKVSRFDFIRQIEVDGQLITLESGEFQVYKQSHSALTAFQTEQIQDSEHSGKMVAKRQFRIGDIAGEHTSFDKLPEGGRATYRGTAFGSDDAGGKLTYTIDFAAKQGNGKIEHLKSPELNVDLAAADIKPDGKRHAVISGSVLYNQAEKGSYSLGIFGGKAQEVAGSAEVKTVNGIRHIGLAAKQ

B1: human anti-fHbp mAb 3B7 (antibody, V domains shown)
VH: EVQLVQSGAEVKKPGSSVKVSCKASGDTFSNYPISWVRQAPGQGLEWMGGIIPIFGTANYAQKFQGRVTITADESTSTPYMELSSLRSEDTAVYYCARGDTAMAPFDYWGQGTLVTVSS
VL: SYVLTQPPSVSVAPGKTARITCGGNSIGSKSVHWYQQKPGQAPVLVIYYDSDRPSGVPERISGSNSGNTATLTISRVEAGDEADYYCQVWDSSSDSWVFGGGTKLTVL
notes: source: Expi293, transient transfection, purified (protein G Sepharose)
B2: human anti-fHbp mAb 2C8 (antibody, V domains shown)
VH: QVQLVQSGAEVKKPGSSVKVSCKASGGTVINYPISWVRQVPGQGLEWMGRLVPLFGTPNYGQKFQGRITITADKSTSAAYMELIGLKSEDTAVYYCARGDTAMAPFDYWGHGTLVTVSS
VL: QLVLTQPPSVSVAPGKTATITCGGNNVGGKTVHWYQQKPGQAPVLVMSYDSDRPSGIPERFSGSNSGNTATLTISRVEAEDEADYYCQVWHGNDDHWVFGGGTKLTVL
notes: IgG1; source: Expi293, transient transfection, purified (protein G Sepharose)
B3: human anti-fHbp mAb 4F9 (antibody, V domains shown)
VH: QVQLVQSGGGLVKPGGSLRLSCAASGFPFSSYYMSWIRQAPGKGLEWVSDINNSGNVKEYADFVKGRLTISRDNVKNSMYLHMNSLRVEDTAVYYCARNRGRFDVWGQGTLVTVSA
VL: EIVMTQSPGTLSLSPGETATLSCRASQMISSPFLAWYQQRRGQAPRLLIYGASTRATDTPDRFRGSGSGTDFILTISRLEPEDFAVYYCQHYDDSPFTFGQGTKLEIK
notes: as for B2
B4: human anti-fHbp mAb 4B3 (IgG1) (antibody, V domains shown)
VH: B3 VH
VL: B3 VL with H91Y
notes: as for B2
B5: human anti-fHbp mAb 3G7 (antibody, V domains shown)
VH: B3 VH with Q1E, V5L
VL: B3 VL with M4L, H91Y
notes: as for B2
B6: human anti-fHbp mAb 1D1 (antibody, V domains shown)
VH: QVQLVGSGGGLVKPGGSLRLSCAASGFTFSSYTMNWVRQAPGKGLEWVSSISSSSGYIYYADSLKGRFTISRDDAKNSLFLQMNSLRAEDTAVYFCARDKVLPAPPGFYGLDVWGPGTTVTVSS
VL: QSVVTQPPSVSAAPGQKVTISCSGSSSNIEDNFVSWYQQLPGTAPKLLIYDNNQRPSGIPDRFSGSKSGTSATLGITGLQTGDEADYYCATWDNSLSARVFGGGTKLTVL
notes: as for B2
B7: human anti-fHbp mAb 3F1 (antibody, V domains shown)
VH: B6 VH with Q1E, Q3H, G6E, D74N
VL: B6 VL
notes: as for B2
B8: human anti-fHbp mAb 5F12 (antibody, V domains shown)
VH: EVQLVESGGDLVKPGGSLRLSCAASGFTFSNYTMNWVRQAPGKGLEWVSSITSSSSFKYYADSVKGRFTISRDNAKNSVFLQMNSLRAEDTAIYYCARRIDSSDQDWFYYYGMDVWGLGTTVTVSS
VL: QSVLTQPPSVSAAPGQRVTISCSGSSSNIGDNYISWYQQLPGTAPKLLIYDNDQRPSGTPDRFSASKSGTSATLGVTGLQTGDEADYYCGTWDSSLNAPVFGSGTKVTVL
notes: as for B2
B9: human anti-fHbp mAb 1E10 (antibody, V domains shown)
VH: QVQLVESGGDLVKPGGSLRLSCVASGFTFSSYTMNWVRQAPGKGLEWVSSITSSSSFTYYADSVKGRFIISRDNAKNSLSLQMNNLRVEDTATYYCARRKDSSDYDWYYYYGMDVWGLGTTVTVSS
VL: QSVVTQPPSVSAAPGQKVTISCSGSSSNIGDNYMSWYQQIPGTAPKLLIFDNDQRPSGIPDRFSASKSGTSATLDITGFQTGDEADYYCGTWDSGLSAPVFGGGTKLTVL
notes: as for B2
B10: human anti-fHbp mAb 2G1 (antibody, V domains shown)
VH: B9 VH
VL: B9 VL with V4L
notes: as for B2
B11: human anti-fHbp mAb 5C6 (antibody, V domains shown)
VH: EVQLLESGGGLVQPGGSLRLSCAASGFTFSSYAMSWVRQTPGKGLEWVSAISGSGGSTYYADSVQGRFTISRDNSKNTLYLQINSLRAEDTAVYYCAKDPGFVLSSGWYYFDYWGQGTLVTVSS
VL: not shown
notes: as for B2

In one test the target is T1, factor H binding protein (fHbp) variant …. As to the kind of experiment: SPR. The settings on record: both partners purified.
Turning to B1, the Kd (commonly the constant that tells how readily two partners part at equilibrium) amounted to 2.6 nM.

Take B2: the dissociation constant (Kd) worked out at 0.34 nM.

Turning to B3, the dissociation constant (Kd) was found to be 0.077 nM.

Regarding B4, the Kd turned out to be 0.328 nM.

As to B5, the Kd was found to be 0.344 nM.

On to B6, for which the dissociation constant (Kd) stood at 0.893 nM.

As for B7, the Kd turned out to be 1.04 nM.

Regarding B8, the Kd was determined as 1.01 nM.

For B9, the Kd was 1.54 nM.

As for B10, the Kd was found to be 1.08 nM.

With B11, the equilibrium dissociation constant (Kd) was determined as 1.08 nM.

The target in a further test is T2, factor H binding protein (fHbp) variant 2.16, recombinant (Neisseria meningitidis 961-5945, UniProt Q6VS19, strain).
T2 construct: also called fHbp v2.16; fHbp v2; source: E. coli BL21(DE3), purified (Ni-NTA, SEC when necessary)
As to the kind of experiment: SPR. Particulars: both partners purified.
Turning to B1, the dissociation constant Kd turned out to be 0.551 nM.

Take B2: the equilibrium dissociation constant (Kd) is 0.0525 nM.

With B3, the Kd turned out to be 0.0285 nM.

Turning to B4, the Kd is 0.029 nM.

For B5, the Kd was found to be 0.0526 nM.

In the case of B6, the equilibrium dissociation constant (Kd) is 2.61 nM.

Turning to B7, the Kd amounted to 11.3 nM.

In the case of B8, the dissociation constant (Kd) stood at 2.75 nM.

Take B9: the Kd is 1.4 nM.

As to B10, the Kd is 1.7 nM.

As to B11, the Kd worked out at 1.7 nM.

A further test addresses T3, factor H binding protein (fHbp) variant 3.28, recombinant (Neisseria meningitidis M1239, fHbp v3.28, UniProt Q19KF7, strain).
T3 construct: also called fHbp v3.28; fHbp v3; source: E. coli BL21(DE3), purified (Ni-NTA, SEC when necessary)
As to the kind of experiment: SPR. Particulars: both partners purified.
B1: the Kd worked out at 2.2 nM.

Turning to B2, the equilibrium dissociation constant (Kd) worked out at 0.46 nM.

On to B3, for which the Kd is 0.24 nM.

In the case of B4, the Kd came out at 0.633 nM.

As for B5, the equilibrium dissociation constant (Kd) amounted to 0.68 nM.

Turning to B6, the equilibrium dissociation constant (Kd) was 1.72 nM.

In the case of B7, the Kd is 1.8 nM.

As for B8, the Kd was determined as 1.75 nM.

B9: the dissociation constant (Kd) stood at 1.27 nM.

Regarding B10, the dissociation constant Kd worked out at 1.75 nM.

On to B11, for which the Kd stood at 2.03 nM.

The next test concerns the target T4, native fHbp v2.16 on live N. meningitidis strain UK104 (M08-240104) (Neisseria meningitidis, UniProt Q6VS19).
T4 construct: source: endogenous, on live N. meningitidis M08-240104 (UK104)
As to the kind of experiment: flow cytometry on cells. Particulars: one partner purified. A general note: In flow cytometry, cells or beads pass a laser one at a time.
As for B3, the binding result is listed as “binds”.

Take B4: the binding result is “binds”.

As to B5, the binding result is listed as “binds”.

The next test deals with T4, native fHbp v2.16 on live N. …. As to the kind of experiment: flow cytometry on cells; live meningococci (MC58, UK104, UK320) in mid-log phase incubated with mAbs at 10 ug/ml; detected with FITC anti-human IgG. Particulars: one partner purified.
With B11, the binding result is listed as “binds”.

The next test addresses T1, factor H binding protein (fHbp) variant …. As to the kind of experiment: BLI; Octet 384 Red, 30 C; mAb 4B3 captured on Anti-Human Fc biosensors, wild type and mutant fHbp in solution, 150 nM to 1 nM, in 1 x PBS, 1% (w/v) BSA; triplicate. Particulars: both partners purified.
As for B4, the equilibrium dissociation constant (Kd) stood at 1.7 nM.
